Assay results as given in PMC6900781.

Key:
[1] = molecular target: CAL1-GFP-LacI [Drosophila melanogaster]; assay: LacO-tethering recruitment assay (HA immunofluorescence intensity at LacO); settings: parent: 0.18; read off a plot
[2] = molecular target: GFP-LacI-dCENP-C [Drosophila melanogaster]; assay: as above; settings: parent: 1.2; read off a plot

response (normalized to GFP) [1]	response (normalized to GFP) [2]	Substance
0.07	–	HA-dCENP-C mutant L1357E; L1406E [Drosophila melanogaster] / CAL1-GFP-LacI [Drosophila melanogaster] chain 1 L1357E, chain 1 L1406E
–	0.15	HA-dCENP-C mutant L1357E; L1406E [Drosophila melanogaster] / GFP-LacI-dCENP-C [Drosophila melanogaster] chain 1 L1357E, chain 1 L1406E
